Measurements reported in patent US20220153847A1 (Chugai, published 2022).

Tests used:
[1] = target: DQ2.5/alpha 2 gliadin peptide on IHW9023 cells (human); experiment: cell-based or functional assay
[2] = target: DQ2.5/BC hordein peptide on IHW9023 cells (human); experiment: cell-based or functional assay
[3] = target: DQ2.5/omega 2 gliadin peptide on IHW9023 cells (human); experiment: cell-based or functional assay
[4] = target: DQ2.5/gamma 1 gliadin peptide on IHW9023 cells (human); experiment: cell-based or functional assay
[5] = target: T1, HLA-DQ2.5/avenin 1 peptide complex on Ba/F3 cells (human); experiment: FACS, Ba/F3 cells; IC17=0%, DQN0139bb=100%;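 note: flow cytometric binding of anti-HLA-DQ antibodies, each applied at 5 µg/mL for 30 min at room temperature, to Ba/F3 cell lines displaying HLA-DQ–peptide complexes; antibody tested at 5 microgram/mL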
T1 construct: whole, on cells; also called Ba/F3-HLA-DQ2.5/avenin 1
Description: (§1) The binding of anti-HLA-DQ antibodies to Ba/F3-HLA-DQ2.5, Ba/F3-HLA-DQ2.2, Ba/F3-HLA-DQ7.5, Ba/F3-HLA-DQ8, Ba/F3-HLA-DQ5.1, Ba/F3-HLA-DQ6.3, Ba/F3-HLA-DQ7.3, Ba/F3-HLA-DR, Ba/F3-HLA-DP, Ba/F3-HLA-DQ2.5/CLIP, Ba/F3-HLA-DQ2.5/HBV, Ba/F3-HLA-DQ2.5/Salmonella, Ba/F3-HLA-DQ2.5/TPO, Ba/F3-HLA-DQ2.5/M. bovis, Ba/F3-HLA-DQ2.5/alpha 1 gliadin, Ba/F3-HLA-DQ2.5/alpha 2 gliadin, Ba/F3-HLA-DQ2.5/gamma 1 gliadin, Ba/F3-HLA-DQ2.5/gamma 2 gliadin, Ba/F3-HLA-DQ2.5/omega 1 gliadin, Ba/F3-HLA-DQ2.5/omega 2 gliadin, Ba/F3-HLA-DQ2.5/BC hordein, Ba/F3-HLA-DQ2.5/alpha 3 gliadin, Ba/F3-HLA-DQ2.5/alpha 1b gliadin, Ba/F3-HLA-DQ2.5/gamma 4b gliadin, Ba/F3-HLA-DQ2.5/avenin 1, Ba/F3-HLA-DQ2.5/avenin 2, Ba/F3-HLA-DQ2.5/avenin 3, Ba/F3-HLA-DQ2.5/hordein 1, Ba/F3-HLA-DQ2.5/hordein 2, Ba/F3-HLA-DQ2.5/secalin 1, Ba/F3-HLA-DQ2.5/secalin 2, Ba/F3-HLA-DQ2.5/14mer 1, Ba/F3-HLA-DQ2.5/33mer gliadin, Ba/F3-HLA-DQ2.5/26mer gliadin, was tested. 5 microgram/mL of each of the anti-HLA-DQ antibodies was incubated with each cell line for 30 minutes at room temperature and washed with FACS buffer (2% FBS, 2 mM EDTA in PBS).

[6] = target: T2, HLA-DQ2.5/omega 1 gliadin peptide complex on Ba/F3 cells (human); experiment: FACS, Ba/F3 cells; IC17=0%, DQN0139bb=100%;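 note: flow cytometric binding of anti-HLA-DQ antibodies, each applied at 5 µg/mL for 30 min at room temperature, to Ba/F3 cell lines displaying HLA-DQ–peptide complexes; antibody tested at 5 microgram/mL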
T2 construct: whole, on cells; also called Ba/F3-HLA-DQ2.5/omega 1 gliadin; HLA-DQ2.5/w1 gliadin
Description: as §1

[7] = target: T3, HLA-DQ2.5/26mer gliadin peptide complex on Ba/F3 cells (human); experiment: FACS, Ba/F3 cells; IC17=0%, DQN0139bb=100%;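 note: flow cytometric binding of anti-HLA-DQ antibodies, each applied at 5 µg/mL for 30 min at room temperature, to Ba/F3 cell lines displaying HLA-DQ–peptide complexes; antibody tested at 5 microgram/mL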
T3 construct: whole, on cells; also called Ba/F3-HLA-DQ2.5/26mer gliadin
Description: as §1

[8] = target: T4, HLA-DQ2.5/omega 2 gliadin peptide complex on Ba/F3 cells (human); experiment: FACS, Ba/F3 cells; IC17=0%, DQN0139bb=100%;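 note: flow cytometric binding of anti-HLA-DQ antibodies, each applied at 5 µg/mL for 30 min at room temperature, to Ba/F3 cell lines displaying HLA-DQ–peptide complexes; antibody tested at 5 microgram/mL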
T4 construct: whole, on cells; also called Ba/F3-HLA-DQ2.5/omega 2 gliadin; HLA-DQ2.5/w2 gliadin
Description: as §1

[9] = target: T5, HLA-DQ2.5/14mer 1 peptide complex on Ba/F3 cells (human); experiment: FACS, Ba/F3 cells; IC17=0%, DQN0139bb=100%
T5 construct: whole, on cells; also called Ba/F3-HLA-DQ2.5/14mer 1
Description: as §1

[10] = target: T6, HLA-DQ2.5/CLIP peptide complex on Ba/F3 cells (human); experiment: FACS, Ba/F3 cells; IC17=0%, DQN0139bb=100%
T6 construct: whole, on cells; also called Ba/F3-HLA-DQ2.5/CLIP
Description: as §1

[11] = target: T7, HLA-DQ2.5/BC hordein peptide complex on Ba/F3 cells (human); experiment: FACS, Ba/F3 cells; IC17=0%, DQN0139bb=100%
T7 construct: whole, on cells; also called Ba/F3-HLA-DQ2.5/BC hordein
Description: as §1

[12] = target: T8, HLA-DQ2.5/hordein 2 peptide complex on Ba/F3 cells (human); experiment: FACS, Ba/F3 cells; IC17=0%, DQN0139bb=100%
T8 construct: whole, on cells; also called Ba/F3-HLA-DQ2.5/hordein 2
Description: as §1

[13] = target: T9, HLA-DQ2.5/alpha 3 gliadin peptide complex on Ba/F3 cells (human); experiment: FACS, Ba/F3 cells; IC17=0%, DQN0139bb=100%
T9 construct: whole, on cells; also called Ba/F3-HLA-DQ2.5/alpha 3 gliadin; HLA-DQ2.5/a3 gliadin
Description: as §1

[14] = target: T10, HLA-DQ2.5/secalin 1 peptide complex on Ba/F3 cells (human); experiment: FACS, Ba/F3 cells; IC17=0%, DQN0139bb=100%
T10 construct: whole, on cells; also called Ba/F3-HLA-DQ2.5/secalin 1
Description: as §1

[15] = target: T11, HLA-DQ2.5/gamma 1 gliadin peptide complex on Ba/F3 cells (human); experiment: FACS, Ba/F3 cells; IC17=0%, DQN0139bb=100%
T11 construct: whole, on cells; also called Ba/F3-HLA-DQ2.5/gamma 1 gliadin; HLA-DQ2.5/g1 gliadin
Description: as §1

[16] = target: T12, HLA-DQ2.5/gamma 4b gliadin peptide complex on Ba/F3 cells (human); experiment: FACS, Ba/F3 cells; IC17=0%, DQN0139bb=100%
T12 construct: whole, on cells; also called Ba/F3-HLA-DQ2.5/gamma 4b gliadin; HLA-DQ2.5/g4b gliadin
Description: as §1

HLA-DQ7.5 on Ba/F3 cells = target: T13, HLA-DQ7.5 on Ba/F3 cells (human, UniProt P01909 24-216; P01920 33-230, limits assumed); experiment: FACS, Ba/F3 cells; IC17=0%, DQN0139bb=100%
T13 construct: whole, on cells; also called Ba/F3-HLA-DQ7.5
Description: as §1

[17] = target: T14, HLA-DQ2.5/secalin 2 peptide complex on Ba/F3 cells (human); experiment: FACS, Ba/F3 cells; IC17=0%, DQN0139bb=100%
T14 construct: whole, on cells; also called Ba/F3-HLA-DQ2.5/secalin 2
Description: as §1

[18] = target: T15, HLA-DQ2.5/33mer gliadin peptide complex on Ba/F3 cells (human); experiment: FACS, Ba/F3 cells; IC17=0%, DQN0139bb=100%
T15 construct: whole, on cells; also called Ba/F3-HLA-DQ2.5/33mer gliadin
Description: as §1

HLA-DQ2.2 on Ba/F3 cells = target: T16, HLA-DQ2.2 on Ba/F3 cells (human, UniProt P01909 24-216, limits assumed); experiment: FACS, Ba/F3 cells; IC17=0%, DQN0139bb=100%
T16 construct: whole, on cells; also called Ba/F3-HLA-DQ2.2
Description: as §1
T16 MHC II alpha: not shown
T16 MHC II beta: not shown

HLA-DQ8 on Ba/F3 cells = target: T17, HLA-DQ8 on Ba/F3 cells (human, UniProt P01909 24-216; P01920 33-230, limits assumed); experiment: FACS, Ba/F3 cells; IC17=0%, DQN0139bb=100%
T17 construct: whole, on cells; also called Ba/F3-HLA-DQ8
Description: as §1
T17 MHC II alpha: not shown
T17 MHC II beta: not shown

[19] = target: T18, HLA-DQ2.5/alpha 1b gliadin peptide complex on Ba/F3 cells (human); experiment: FACS, Ba/F3 cells; IC17=0%, DQN0139bb=100%
T18 construct: whole, on cells; also called Ba/F3-HLA-DQ2.5/alpha 1b gliadin; HLA-DQ2.5/a1b gliadin
Description: as §1

[20] = target: T19, HLA-DQ2.5/avenin 3 peptide complex on Ba/F3 cells (human); experiment: FACS, Ba/F3 cells; IC17=0%, DQN0139bb=100%
T19 construct: whole, on cells; also called Ba/F3-HLA-DQ2.5/avenin 3
Description: as §1

[21] = target: T20, HLA-DQ2.5/hordein 1 peptide complex on Ba/F3 cells (human); experiment: FACS, Ba/F3 cells; IC17=0%, DQN0139bb=100%
T20 construct: whole, on cells; also called Ba/F3-HLA-DQ2.5/hordein 1
Description: as §1

HLA-DQ7.3 on Ba/F3 cells = target: T21, HLA-DQ7.3 on Ba/F3 cells (human, UniProt P01909 24-216; P01920 33-230, limits assumed); experiment: FACS, Ba/F3 cells; IC17=0%, DQN0139bb=100%
T21 construct: whole, on cells; also called Ba/F3-HLA-DQ7.3
Description: as §1
T21 MHC II alpha: not shown
T21 MHC II beta: not shown

[22] = target: T22, HLA-DQ2.5/avenin 2 peptide complex on Ba/F3 cells (human); experiment: FACS, Ba/F3 cells; IC17=0%, DQN0139bb=100%
T22 construct: whole, on cells; also called Ba/F3-HLA-DQ2.5/avenin 2
Description: as §1

[23] = target: T23, HLA-DQ2.5/alpha 2 gliadin peptide complex on Ba/F3 cells (human); experiment: FACS, Ba/F3 cells; IC17=0%, DQN0139bb=100%
T23 construct: whole, on cells; also called Ba/F3-HLA-DQ2.5/alpha 2 gliadin; HLA-DQ2.5/a2 gliadin
Description: as §1

[24] = target: T24, HLA-DQ2.5/gamma 2 gliadin peptide complex on Ba/F3 cells (human); experiment: FACS, Ba/F3 cells; IC17=0%, DQN0139bb=100%
T24 construct: whole, on cells; also called Ba/F3-HLA-DQ2.5/gamma 2 gliadin; HLA-DQ2.5/g2 gliadin
Description: as §1

T13 sequence (P01920 33-230 limits assumed, chain 2 of 4, other chains not shown): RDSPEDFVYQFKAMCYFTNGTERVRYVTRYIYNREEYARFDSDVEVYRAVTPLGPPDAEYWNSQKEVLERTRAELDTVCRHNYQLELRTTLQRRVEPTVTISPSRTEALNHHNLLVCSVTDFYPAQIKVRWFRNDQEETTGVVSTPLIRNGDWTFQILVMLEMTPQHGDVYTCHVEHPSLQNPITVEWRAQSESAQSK
T6 sequence (P04233 96-124, chain 2 of 2, other chains not shown): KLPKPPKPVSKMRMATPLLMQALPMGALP

B1: DQN0429cc (antibody, V domains shown)
VH: QEQLVESGGGLVQPEGSLTLTCTASGFSFSSSYYMCWVRQAPGKGLEWIGCIYTGSGSTDYATWVNGRFTISKTSSTTVTLQMTSLTVADTATYFCARDIGIDYNFWGPGTLVTVSS
VL: AFELTQTPSFVEARVGGTVTIKCQATQSISSYLNWYQQKPGQPPKLLIYYASTLASGVPSRFKGSGSGTEFTLTISGVECADAATYYCHYGISYVSFGGGTKVEIK
notes: also called DQN0492cc
B1 was tested, and the “IC50, Jurkat NFAT-Luc T cell activation” value [1] was 0.00497 µg/mL, the “IC50, Jurkat NFAT-Luc T cell activation” value [2] was 0.786 µg/mL and the “IC50, Jurkat NFAT-Luc T cell activation” value [3] was 0.0215 µg/mL. For the same binder, the “IC50, Jurkat NFAT-Luc T cell activation” value [4] was 0.235 µg/mL, the “% MFI” value [5] was 0.8% and the “% MFI” value [6] was 13.4%. The “% MFI” value [7] was 64%, the “% MFI” value [8] was 45.5% and the “% MFI” value [9] was 58.5%. The “% MFI” value [10] was 0.2%, the “% MFI” value [11] was 26.4% and the “% MFI” value [12] was 70.6%. For the same binder, the “% MFI” value [13] was 9.4%, the “% MFI” value [14] was 11.8% and the “% MFI” value [15] was 36.6%. The “% MFI” value [16] was 13.6%, the “% MFI” value (HLA-DQ7.5 on Ba/F3 cells) was 0.2% and the “% MFI” value [17] was 27.7%. The “% MFI” value [18] was 50.2%, the “% MFI” value (HLA-DQ2.2 on Ba/F3 cells) was 0.7% and the “% MFI” value (HLA-DQ8 on Ba/F3 cells) was 0.2%. The “% MFI” value [19] was 15.7%, the “% MFI” value [20] was 0.1% and the “% MFI” value [21] was 4.5%. For the same binder, the “% MFI” value (HLA-DQ7.3 on Ba/F3 cells) was 0.2%, the “% MFI” value [22] was 2.9% and the “% MFI” value [23] was 67.7%. For the same binder, the “% MFI” value [24] was 6.2%.
